# Reference: article PMC12416549 (2024)
# T1: TNFR1 (Homo sapiens, UniProt P19438)
# T1 chain: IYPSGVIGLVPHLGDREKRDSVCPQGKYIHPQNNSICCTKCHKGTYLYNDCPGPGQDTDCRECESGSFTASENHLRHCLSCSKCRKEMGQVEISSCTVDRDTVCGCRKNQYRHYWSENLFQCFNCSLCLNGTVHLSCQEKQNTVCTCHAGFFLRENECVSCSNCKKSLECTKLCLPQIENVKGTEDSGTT
# Target: T1, TNFR1
# Assay: yeast display SC50
row,apparent Kd (screen) [nM],Binder
1,0.653,E73M (designed binder) MTLQELLREEALRRAEAEAFRYALELLAEKFPEQKEYLLDLAEEIESQIRSLSGVDVEDVRKFLDKEWAWVKMLLAEHPAELAEVEAARAARLAELRAEVEAKVAA
2,1.4,E9R (designed binder) MTLQELLRREALRRAEAEAFRYALELLAEKFPEQKEYLLDLAEEIESQIRSLSGVDVEDVRKFLDKEWAWVKELLAEHPAELAEVEAARAARLAELRAEVEAKVAA
3,2.48,W68S (designed binder) MTLQELLREEALRRAEAEAFRYALELLAEKFPEQKEYLLDLAEEIESQIRSLSGVDVEDVRKFLDKESAWVKELLAEHPAELAEVEAARAARLAELRAEVEAKVAA
4,0.79,K72W (designed binder) MTLQELLREEALRRAEAEAFRYALELLAEKFPEQKEYLLDLAEEIESQIRSLSGVDVEDVRKFLDKEWAWVWELLAEHPAELAEVEAARAARLAELRAEVEAKVAA
5,26.9,L64W (designed binder) MTLQELLREEALRRAEAEAFRYALELLAEKFPEQKEYLLDLAEEIESQIRSLSGVDVEDVRKFWDKEWAWVKELLAEHPAELAEVEAARAARLAELRAEVEAKVAA
6,1.54,L74Q (designed binder) MTLQELLREEALRRAEAEAFRYALELLAEKFPEQKEYLLDLAEEIESQIRSLSGVDVEDVRKFLDKEWAWVKEQLAEHPAELAEVEAARAARLAELRAEVEAKVAA
7,0.539,L52Q (designed binder) MTLQELLREEALRRAEAEAFRYALELLAEKFPEQKEYLLDLAEEIESQIRSQSGVDVEDVRKFLDKEWAWVKELLAEHPAELAEVEAARAARLAELRAEVEAKVAA
8,0.277,R13S (designed binder) MTLQELLREEALSRAEAEAFRYALELLAEKFPEQKEYLLDLAEEIESQIRSLSGVDVEDVRKFLDKEWAWVKELLAEHPAELAEVEAARAARLAELRAEVEAKVAA
9,0.653,E25Y (designed binder) MTLQELLREEALRRAEAEAFRYALYLLAEKFPEQKEYLLDLAEEIESQIRSLSGVDVEDVRKFLDKEWAWVKELLAEHPAELAEVEAARAARLAELRAEVEAKVAA
10,2.05,F20Y (designed binder) MTLQELLREEALRRAEAEAYRYALELLAEKFPEQKEYLLDLAEEIESQIRSLSGVDVEDVRKFLDKEWAWVKELLAEHPAELAEVEAARAARLAELRAEVEAKVAA
11,0.539,D40S (designed binder) MTLQELLREEALRRAEAEAFRYALELLAEKFPEQKEYLLSLAEEIESQIRSLSGVDVEDVRKFLDKEWAWVKELLAEHPAELAEVEAARAARLAELRAEVEAKVAA
12,0.869,E58R (designed binder) MTLQELLREEALRRAEAEAFRYALELLAEKFPEQKEYLLDLAEEIESQIRSLSGVDVRDVRKFLDKEWAWVKELLAEHPAELAEVEAARAARLAELRAEVEAKVAA
13,0.653,P32N (designed binder) MTLQELLREEALRRAEAEAFRYALELLAEKFNEQKEYLLDLAEEIESQIRSLSGVDVEDVRKFLDKEWAWVKELLAEHPAELAEVEAARAARLAELRAEVEAKVAA
14,0.869,V85Y (designed binder) MTLQELLREEALRRAEAEAFRYALELLAEKFPEQKEYLLDLAEEIESQIRSLSGVDVEDVRKFLDKEWAWVKELLAEHPAELAEYEAARAARLAELRAEVEAKVAA
15,0.79,E18C (designed binder) MTLQELLREEALRRAEACAFRYALELLAEKFPEQKEYLLDLAEEIESQIRSLSGVDVEDVRKFLDKEWAWVKELLAEHPAELAEVEAARAARLAELRAEVEAKVAA
16,0.539,L96S (designed binder) MTLQELLREEALRRAEAEAFRYALELLAEKFPEQKEYLLDLAEEIESQIRSLSGVDVEDVRKFLDKEWAWVKELLAEHPAELAEVEAARAARLAESRAEVEAKVAA
17,0.539,V55I (designed binder) MTLQELLREEALRRAEAEAFRYALELLAEKFPEQKEYLLDLAEEIESQIRSLSGIDVEDVRKFLDKEWAWVKELLAEHPAELAEVEAARAARLAELRAEVEAKVAA
18,0.718,R21C (designed binder) MTLQELLREEALRRAEAEAFCYALELLAEKFPEQKEYLLDLAEEIESQIRSLSGVDVEDVRKFLDKEWAWVKELLAEHPAELAEVEAARAARLAELRAEVEAKVAA
19,0.869,R13K (designed binder) MTLQELLREEALKRAEAEAFRYALELLAEKFPEQKEYLLDLAEEIESQIRSLSGVDVEDVRKFLDKEWAWVKELLAEHPAELAEVEAARAARLAELRAEVEAKVAA
20,6.43,E44V (designed binder) MTLQELLREEALRRAEAEAFRYALELLAEKFPEQKEYLLDLAEVIESQIRSLSGVDVEDVRKFLDKEWAWVKELLAEHPAELAEVEAARAARLAELRAEVEAKVAA
21,0.869,V85Q (designed binder) MTLQELLREEALRRAEAEAFRYALELLAEKFPEQKEYLLDLAEEIESQIRSLSGVDVEDVRKFLDKEWAWVKELLAEHPAELAEQEAARAARLAELRAEVEAKVAA
22,2.25,L12G (designed binder) MTLQELLREEAGRRAEAEAFRYALELLAEKFPEQKEYLLDLAEEIESQIRSLSGVDVEDVRKFLDKEWAWVKELLAEHPAELAEVEAARAARLAELRAEVEAKVAA
23,0.956,L74M (designed binder) MTLQELLREEALRRAEAEAFRYALELLAEKFPEQKEYLLDLAEEIESQIRSLSGVDVEDVRKFLDKEWAWVKEMLAEHPAELAEVEAARAARLAELRAEVEAKVAA
24,4.39,L38C (designed binder) MTLQELLREEALRRAEAEAFRYALELLAEKFPEQKEYCLDLAEEIESQIRSLSGVDVEDVRKFLDKEWAWVKELLAEHPAELAEVEAARAARLAELRAEVEAKVAA
25,0.593,E99W (designed binder) MTLQELLREEALRRAEAEAFRYALELLAEKFPEQKEYLLDLAEEIESQIRSLSGVDVEDVRKFLDKEWAWVKELLAEHPAELAEVEAARAARLAELRAWVEAKVAA
26,1.05,L12D (designed binder) MTLQELLREEADRRAEAEAFRYALELLAEKFPEQKEYLLDLAEEIESQIRSLSGVDVEDVRKFLDKEWAWVKELLAEHPAELAEVEAARAARLAELRAEVEAKVAA
